Measured values published in doi:10.1101/681668 (bioRxiv, 2019).

T1: GST-CDC6 (human, UniProt Q99741 1-560)
T1 sequence: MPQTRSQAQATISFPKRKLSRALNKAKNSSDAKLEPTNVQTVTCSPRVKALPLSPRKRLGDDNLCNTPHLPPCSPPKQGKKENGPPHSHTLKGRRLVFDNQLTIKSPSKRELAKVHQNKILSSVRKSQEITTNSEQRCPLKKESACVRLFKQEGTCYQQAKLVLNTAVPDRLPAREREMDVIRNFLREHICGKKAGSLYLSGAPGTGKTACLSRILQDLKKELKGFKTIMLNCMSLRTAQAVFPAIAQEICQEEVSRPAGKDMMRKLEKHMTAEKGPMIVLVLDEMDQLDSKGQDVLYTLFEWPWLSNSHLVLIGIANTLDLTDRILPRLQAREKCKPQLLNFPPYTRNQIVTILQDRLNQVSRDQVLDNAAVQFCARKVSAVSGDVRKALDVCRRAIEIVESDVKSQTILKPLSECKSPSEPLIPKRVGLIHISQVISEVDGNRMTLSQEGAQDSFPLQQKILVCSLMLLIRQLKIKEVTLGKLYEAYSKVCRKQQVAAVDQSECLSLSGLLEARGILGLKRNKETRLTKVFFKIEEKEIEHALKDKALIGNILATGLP

T2: MBP-ORC1 (human, UniProt Q13415 1-861)
T2 sequence: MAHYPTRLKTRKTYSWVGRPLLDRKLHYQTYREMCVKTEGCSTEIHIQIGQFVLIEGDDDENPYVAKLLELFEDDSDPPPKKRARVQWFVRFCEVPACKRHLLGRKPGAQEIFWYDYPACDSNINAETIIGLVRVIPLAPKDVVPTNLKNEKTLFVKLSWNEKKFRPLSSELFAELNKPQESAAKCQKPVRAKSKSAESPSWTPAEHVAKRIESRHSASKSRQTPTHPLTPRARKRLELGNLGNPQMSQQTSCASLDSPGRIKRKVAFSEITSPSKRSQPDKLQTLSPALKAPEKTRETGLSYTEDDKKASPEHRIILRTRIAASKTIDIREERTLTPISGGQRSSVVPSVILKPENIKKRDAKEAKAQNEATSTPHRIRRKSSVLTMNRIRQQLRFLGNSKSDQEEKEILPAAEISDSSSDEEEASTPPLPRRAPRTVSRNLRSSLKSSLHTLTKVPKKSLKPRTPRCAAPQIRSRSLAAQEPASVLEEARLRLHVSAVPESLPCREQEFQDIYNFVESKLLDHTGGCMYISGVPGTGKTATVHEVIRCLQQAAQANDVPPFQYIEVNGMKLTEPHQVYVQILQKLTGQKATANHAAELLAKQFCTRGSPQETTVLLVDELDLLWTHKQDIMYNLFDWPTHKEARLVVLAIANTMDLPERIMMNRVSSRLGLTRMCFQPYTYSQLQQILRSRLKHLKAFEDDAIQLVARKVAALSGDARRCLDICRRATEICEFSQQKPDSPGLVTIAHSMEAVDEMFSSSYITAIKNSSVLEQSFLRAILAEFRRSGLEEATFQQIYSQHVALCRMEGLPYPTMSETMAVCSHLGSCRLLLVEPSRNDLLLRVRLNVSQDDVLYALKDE

T3: ORC1 230-400-His (human, UniProt Q13415 230-400)
T3 sequence: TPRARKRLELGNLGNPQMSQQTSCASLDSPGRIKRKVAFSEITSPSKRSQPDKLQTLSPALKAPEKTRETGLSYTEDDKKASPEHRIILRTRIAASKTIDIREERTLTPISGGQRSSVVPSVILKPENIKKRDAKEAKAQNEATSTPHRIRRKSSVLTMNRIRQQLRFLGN

B1: MBP-ORC1 1-240 (domain or fragment)
chain: MAHYPTRLKTRKTYSWVGRPLLDRKLHYQTYREMCVKTEGCSTEIHIQIGQFVLIEGDDDENPYVAKLLELFEDDSDPPPKKRARVQWFVRFCEVPACKRHLLGRKPGAQEIFWYDYPACDSNINAETIIGLVRVIPLAPKDVVPTNLKNEKTLFVKLSWNEKKFRPLSSELFAELNKPQESAAKCQKPVRAKSKSAESPSWTPAEHVAKRIESRHSASKSRQTPTHPLTPRARKRLELG
B2: MBP-ORC1-230-400 (domain or fragment)
chain: TPRARKRLELGNLGNPQMSQQTSCASLDSPGRIKRKVAFSEITSPSKRSQPDKLQTLSPALKAPEKTRETGLSYTEDDKKASPEHRIILRTRIAASKTIDIREERTLTPISGGQRSSVVPSVILKPENIKKRDAKEAKAQNEATSTPHRIRRKSSVLTMNRIRQQLRFLGN
B3: MBP-ORC1 180-400 (domain or fragment)
chain: QESAAKCQKPVRAKSKSAESPSWTPAEHVAKRIESRHSASKSRQTPTHPLTPRARKRLELGNLGNPQMSQQTSCASLDSPGRIKRKVAFSEITSPSKRSQPDKLQTLSPALKAPEKTRETGLSYTEDDKKASPEHRIILRTRIAASKTIDIREERTLTPISGGQRSSVVPSVILKPENIKKRDAKEAKAQNEATSTPHRIRRKSSVLTMNRIRQQLRFLGN
B4: MBP-ORC1-350-400 (domain or fragment)
chain: SVILKPENIKKRDAKEAKAQNEATSTPHRIRRKSSVLTMNRIRQQLRFLGN
B5: MBP-ORC1-180-240 (domain or fragment)
chain: QESAAKCQKPVRAKSKSAESPSWTPAEHVAKRIESRHSASKSRQTPTHPLTPRARKRLELG
B6: MBP-ORC1-230-400 A-A (domain or fragment)
chain: TPRARARAELGNLGNPQMSQQTSCASLDSPGRIKRKVAFSEITSPSKRSQPDKLQTLSPALKAPEKTRETGLSYTEDDKKASPEHRIILRTRIAASKTIDIREERTLTPISGGQRSSVVPSVILKPENIKKRDAKEAKAQNEATSTPHRIRRKSSVLTMNRIRQQLRFLGN
B7: MBP-ORC1 fragment (165-250) (domain or fragment)
chain: FRPLSSELFAELNKPQESAAKCQKPVRAKSKSAESPSWTPAEHVAKRIESRHSASKSRQTPTHPLTPRARKRLELGNLGNPQMSQQ
B8: ORC1-180-240-His (domain or fragment)
chain: QESAAKCQKPVRAKSKSAESPSWTPAEHVAKRIESRHSASKSRQTPTHPLTPRARKRLELG
B9: GST-CDC6 with internal deletion of 51-70 (natural protein)
chain: MPQTRSQAQATISFPKRKLSRALNKAKNSSDAKLEPTNVQTVTCSPRVKAPPCSPPKQGKKENGPPHSHTLKGRRLVFDNQLTIKSPSKRELAKVHQNKILSSVRKSQEITTNSEQRCPLKKESACVRLFKQEGTCYQQAKLVLNTAVPDRLPAREREMDVIRNFLREHICGKKAGSLYLSGAPGTGKTACLSRILQDLKKELKGFKTIMLNCMSLRTAQAVFPAIAQEICQEEVSRPAGKDMMRKLEKHMTAEKGPMIVLVLDEMDQLDSKGQDVLYTLFEWPWLSNSHLVLIGIANTLDLTDRILPRLQAREKCKPQLLNFPPYTRNQIVTILQDRLNQVSRDQVLDNAAVQFCARKVSAVSGDVRKALDVCRRAIEIVESDVKSQTILKPLSECKSPSEPLIPKRVGLIHISQVISEVDGNRMTLSQEGAQDSFPLQQKILVCSLMLLIRQLKIKEVTLGKLYEAYSKVCRKQQVAAVDQSECLSLSGLLEARGILGLKRNKETRLTKVFFKIEEKEIEHALKDKALIGNILATGLP
B10: GST-CDC6 with internal deletion of 11-20 (natural protein)
chain: MPQTRSQAQARALNKAKNSSDAKLEPTNVQTVTCSPRVKALPLSPRKRLGDDNLCNTPHLPPCSPPKQGKKENGPPHSHTLKGRRLVFDNQLTIKSPSKRELAKVHQNKILSSVRKSQEITTNSEQRCPLKKESACVRLFKQEGTCYQQAKLVLNTAVPDRLPAREREMDVIRNFLREHICGKKAGSLYLSGAPGTGKTACLSRILQDLKKELKGFKTIMLNCMSLRTAQAVFPAIAQEICQEEVSRPAGKDMMRKLEKHMTAEKGPMIVLVLDEMDQLDSKGQDVLYTLFEWPWLSNSHLVLIGIANTLDLTDRILPRLQAREKCKPQLLNFPPYTRNQIVTILQDRLNQVSRDQVLDNAAVQFCARKVSAVSGDVRKALDVCRRAIEIVESDVKSQTILKPLSECKSPSEPLIPKRVGLIHISQVISEVDGNRMTLSQEGAQDSFPLQQKILVCSLMLLIRQLKIKEVTLGKLYEAYSKVCRKQQVAAVDQSECLSLSGLLEARGILGLKRNKETRLTKVFFKIEEKEIEHALKDKALIGNILATGLP
B11: GST-CDC6 with internal deletion of 21-30 (natural protein)
chain: MPQTRSQAQATISFPKRKLSDAKLEPTNVQTVTCSPRVKALPLSPRKRLGDDNLCNTPHLPPCSPPKQGKKENGPPHSHTLKGRRLVFDNQLTIKSPSKRELAKVHQNKILSSVRKSQEITTNSEQRCPLKKESACVRLFKQEGTCYQQAKLVLNTAVPDRLPAREREMDVIRNFLREHICGKKAGSLYLSGAPGTGKTACLSRILQDLKKELKGFKTIMLNCMSLRTAQAVFPAIAQEICQEEVSRPAGKDMMRKLEKHMTAEKGPMIVLVLDEMDQLDSKGQDVLYTLFEWPWLSNSHLVLIGIANTLDLTDRILPRLQAREKCKPQLLNFPPYTRNQIVTILQDRLNQVSRDQVLDNAAVQFCARKVSAVSGDVRKALDVCRRAIEIVESDVKSQTILKPLSECKSPSEPLIPKRVGLIHISQVISEVDGNRMTLSQEGAQDSFPLQQKILVCSLMLLIRQLKIKEVTLGKLYEAYSKVCRKQQVAAVDQSECLSLSGLLEARGILGLKRNKETRLTKVFFKIEEKEIEHALKDKALIGNILATGLP
B12: GST-CDC6 with internal deletion of 71-90 (natural protein)
chain: MPQTRSQAQATISFPKRKLSRALNKAKNSSDAKLEPTNVQTVTCSPRVKALPLSPRKRLGDDNLCNTPHLLKGRRLVFDNQLTIKSPSKRELAKVHQNKILSSVRKSQEITTNSEQRCPLKKESACVRLFKQEGTCYQQAKLVLNTAVPDRLPAREREMDVIRNFLREHICGKKAGSLYLSGAPGTGKTACLSRILQDLKKELKGFKTIMLNCMSLRTAQAVFPAIAQEICQEEVSRPAGKDMMRKLEKHMTAEKGPMIVLVLDEMDQLDSKGQDVLYTLFEWPWLSNSHLVLIGIANTLDLTDRILPRLQAREKCKPQLLNFPPYTRNQIVTILQDRLNQVSRDQVLDNAAVQFCARKVSAVSGDVRKALDVCRRAIEIVESDVKSQTILKPLSECKSPSEPLIPKRVGLIHISQVISEVDGNRMTLSQEGAQDSFPLQQKILVCSLMLLIRQLKIKEVTLGKLYEAYSKVCRKQQVAAVDQSECLSLSGLLEARGILGLKRNKETRLTKVFFKIEEKEIEHALKDKALIGNILATGLP
B13: GST-CDC6 1-110 (domain or fragment)
chain: MPQTRSQAQATISFPKRKLSRALNKAKNSSDAKLEPTNVQTVTCSPRVKALPLSPRKRLGDDNLCNTPHLPPCSPPKQGKKENGPPHSHTLKGRRLVFDNQLTIKSPSKR
B14: MBP-ORC1-100-250 (domain or fragment)
chain: RHLLGRKPGAQEIFWYDYPACDSNINAETIIGLVRVIPLAPKDVVPTNLKNEKTLFVKLSWNEKKFRPLSSELFAELNKPQESAAKCQKPVRAKSKSAESPSWTPAEHVAKRIESRHSASKSRQTPTHPLTPRARKRLELGNLGNPQMSQQ

molecular target: T1, GST-CDC6; assay: pull-down

Binding result, binds:
B1
B2
B3
B4
B5
B6
B7

molecular target: B2; assay: pull-down

Binding result, binds:
B8

molecular target: T2, MBP-ORC1; assay: pull-down

Binding result, binds:
B9
B10
B11
B12
B13

molecular target: T3, ORC1 230-400-His; assay: pull-down

Binding result, binds:
B14

molecular target: B8; assay: pull-down

Binding result, binds:
B4
